Reference: PMC3337157 (Small GTPases, 2011)

Target: T1, Rnd1 mutant W66L (residues 5-200) (UniProt Q92730 5-200, W66L)
T1 sequence (looked up): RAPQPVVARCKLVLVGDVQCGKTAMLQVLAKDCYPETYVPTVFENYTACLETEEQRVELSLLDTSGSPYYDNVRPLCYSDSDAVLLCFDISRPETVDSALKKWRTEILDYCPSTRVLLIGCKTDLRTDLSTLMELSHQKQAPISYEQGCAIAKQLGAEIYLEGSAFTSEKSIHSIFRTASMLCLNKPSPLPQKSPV
Test: ITC

Ka: 209000 M⁻¹ | Kd: 4.8 ± 0.5 µM | dH: -3.9 ± 0.1 kcal/mol | stoichiometry N: 0.98
B1: plexin-B1 Rho GTPase binding domain (RBD) (domain or fragment)
chain: DVEYRPLTLNALLAVGPGAGEAQGVPVKVLDCDTISQAKEKMLDQLYKGVPLTQRPDPRTLDVEWRSGVAGHLILSDEDVTSEVQGLWRRLNTLQHYKVPDGATVALVPCLTKHVLRENQ
